According to paper doi:10.1101/2025.10.29.685377:
Read-outs that look alike come from different tables or passages of the source.

Tests used:
[1] = biological target: Alka channel (Drosophila melanogaster alkaline taste receptor Alka) (Drosophila melanogaster); experiment: cryo-EM structure
[2] = biological target: Alka channel (Drosophila melanogaster alkaline taste receptor Alka) (Drosophila melanogaster); experiment: cryo-EM structure; remark: listed apart in the source

- stoichiometry N [1]: 5
- stoichiometry N [2]: 5
Substance: Alka channel (Drosophila melanogaster alkaline taste receptor Alka)
